Changes are numbered by the printed parent chain.
B1: 20C2-6B IgG1 (antibody, V domains shown)
VH: QVTLKESGPALVKPTQTLTLTCTLSGFSLSTSGMGVGWIRQPPGKALEWLAHIWWDDDKSYNPSLKSRLTISKDTSKNQVVLTMTNMDPVDTATYYCARRQLGLRSIDAMDYWGQGTTVTVSS
VL: DVVMTQSPLSLPVTPGEPASISCRSSQSILHSNGNTYLEWYLQKPGQSPQLLIYKVSNRFSGVPDRFSGSGSGTDFTLKISRVEAEDVGVYYCFQSSRVPLTFGQGTKLEIK
B2: 20C2-8B IgG1 (antibody, V domains shown)
VH: B1 VH
VL: B1 VL with F94L, S96T, S97T

Experiments:
[1] = target: biotinylated ADDL (bADDL) (UniProt P05067); assay: BIACORE, bADDL as antigen; IgG1#1
[2] = target: biotin-Aβ1-20 (UniProt P05067); assay: BIACORE, biotin-Aβ1-20 as antigen; IgG1#1
[3] = target: biotin-Aβ1-20 (UniProt P05067); assay: BIACORE, biotin-Aβ1-20 as antigen; IgG1#2
[4] = target: biotinylated ADDL (bADDL) (UniProt P05067); assay: BIACORE, bADDL as antigen; IgG1#2

Binder | Kd [1] [pM] | Kd [2] [pM] | Kd [3] [pM] | Kd [4] [pM]
B1 | 53 | 53 |  | 
B2 | 13 | 46 | 64 | 0.8

From US20100239597A1
